Assay results published in US20110150759A1.

Tests used:
wtEGFR-FLAG (human) = wtEGFR-FLAG (human) (UniProt P00533); experiment: flow cytometry on Ba/F3 cells, median fluorescence; reference M2 anti-FLAG antibody
C271A/C283A-EGFR (human) = C271A/C283A-EGFR (human) (UniProt P00533); experiment: flow cytometry on Ba/F3 cells, median fluorescence, average of four independent clones; reference M2 anti-FLAG antibody
[1] = target: soluble EGFR fragment 1-501 (human) (UniProt P00533); experiment: SPR (BIAcore), EGFR fragment 1-501 (unable to form tether)
[2] = target: EGFR 1-621 full length extracellular domain (human) (UniProt P00533); experiment: SPR (BIAcore), EGFR fragment 1-621 (can form tether)

monoclonal antibody 806, sequence (VH): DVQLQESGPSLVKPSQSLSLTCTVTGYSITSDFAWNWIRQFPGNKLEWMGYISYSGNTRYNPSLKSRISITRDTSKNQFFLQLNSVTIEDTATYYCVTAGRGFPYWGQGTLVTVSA
monoclonal antibody 806, sequence (VL): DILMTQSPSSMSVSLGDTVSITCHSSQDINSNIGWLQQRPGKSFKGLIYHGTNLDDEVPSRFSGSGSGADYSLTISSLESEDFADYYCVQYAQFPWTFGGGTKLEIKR

ratio of antibody binding mAb 528/M2 (wtEGFR-FLAG (human))	ratio of antibody binding mAb 528/M2 (C271A/C283A-EGFR (human))	Kd [1] [nM]	Kd [2] [nM]	Substance
1.37	1.08			mAb 528 (antibody)
		34	389	monoclonal antibody 806
